Results from patent US20040143098, “Method for improving plant tolerance to environmental stress” (published 2004).

Tests used:
DBF1 [1] = target: DBF1 (Zea mays); test: EMSA; same buffer; conditions: tags: pET28 tag (about 31 aa), expressed in E. coli; label: 32P
Excerpt: (§1) The following DNA oligonucleotides were used in electrophoretic mobility shift assays: DRE2 (SEQ ID NO 4 and 5), DRE2 m (SEQ ID NOs 6 and 7), DRE1 (SEQ ID NO 8 and 9), DRE1/ABRE1 (SEQ ID NOs 10 and 11), ABRE A (SEQ ID Nos12 and 13). The full-length oligonucleotides were purified by denaturing PAGE. Complementary oligonucleotides were annealed and purified in nondenaturing polyacrylamide gel. The double-stranded oligonucleotides were labelled with α³² P-dATP (3000 Ci/mmol, Amersham) by filling in with the Klenow fragment of the DNA polymerase I (Sambrook et al., 1989) and purified on a NAP5 column (Pharmacia), according to the manufacturers instructions. Unlabeled competitor DNA was filled in with nonradioactive nucleotides.
(§2) The radioactive probe was incubated with 400 ng of protein in 20 μl of 1× binding buffer (25 mM HEPES, pH 7.8, 75 mM KCl, 5 mM MgCl_{2,} 0.5 mM EDTA, 0.2 mM DTT and 10% glycerol) and 700 ng poly(dl-dC) for 20 min on ice before loading on a 1× Tris-borate-EDTA, 5% (30:0.8 acrylamide-bis) polyacrylamide gel. Electrophoresis was at 10 V/cm at 4° C. In competition assays the protein was incubated with non-radioactive oligonucleotides in 1× binding buffer, on ice for 10 min prior to adding the radioactive probe and continuing with incubation for 20 min more.

DBF1 [2] = target: DBF1 (Zea mays); test: EMSA; same buffer; ABRE reported as not bound; conditions: tags: pET28 tag (about 31 aa), expressed in E. coli; label: 32P
Excerpt: as §1, §2

Chain of DBF1 (Zea mays) (chain, as listed by the source): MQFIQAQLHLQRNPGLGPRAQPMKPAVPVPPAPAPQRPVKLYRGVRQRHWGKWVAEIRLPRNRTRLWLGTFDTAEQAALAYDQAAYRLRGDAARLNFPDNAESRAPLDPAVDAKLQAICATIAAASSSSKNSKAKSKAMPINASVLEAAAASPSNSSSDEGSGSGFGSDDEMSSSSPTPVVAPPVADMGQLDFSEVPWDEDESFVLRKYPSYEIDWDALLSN

Row | Binder | binding result (DBF1 [1]) | binding result (DBF1 [2])
1 | DRE1 (dsDNA) DNA 1: GGGGTCGAGAAGAACCGAGACGAAGCGGTCGAG DNA 2: GGGGCTCGACCGCTTCGTCTCGGTTCTTCTCGA | no binding | –
2 | ABRE A (dsDNA) DNA 1: TGGAAGCTTCGCGCCACGTGGGCATGAGATCT DNA 2: TGGAGATCTCATGCCCACGTGGCGCGAAGCTT | – | no binding
